Results from patent EP4810516A1 (Shanghai Shengdi Pharmaceutical Co., Ltd., dated 2026).

T1: recombinant human γ8δ2 TCR protein (human)
T1 chain 1: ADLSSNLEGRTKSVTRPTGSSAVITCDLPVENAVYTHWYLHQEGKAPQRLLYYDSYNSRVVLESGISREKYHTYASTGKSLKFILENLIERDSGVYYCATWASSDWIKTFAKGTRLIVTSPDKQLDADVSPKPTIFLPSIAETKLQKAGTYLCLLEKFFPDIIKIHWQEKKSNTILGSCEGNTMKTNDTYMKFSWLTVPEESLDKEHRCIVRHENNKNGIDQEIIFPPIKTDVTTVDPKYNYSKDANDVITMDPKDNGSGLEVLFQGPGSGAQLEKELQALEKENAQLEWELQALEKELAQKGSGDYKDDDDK
T1 chain 2: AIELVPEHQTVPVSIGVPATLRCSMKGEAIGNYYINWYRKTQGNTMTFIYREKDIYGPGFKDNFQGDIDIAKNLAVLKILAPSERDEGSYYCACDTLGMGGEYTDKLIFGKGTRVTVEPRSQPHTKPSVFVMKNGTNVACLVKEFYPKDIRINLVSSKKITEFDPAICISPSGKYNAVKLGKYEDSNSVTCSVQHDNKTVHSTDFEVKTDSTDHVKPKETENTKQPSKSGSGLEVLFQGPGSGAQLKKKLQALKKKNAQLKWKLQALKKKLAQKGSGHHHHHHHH

T2: recombinant monkey (Macaca mulatta) γ9δ2 TCR protein (monkey (Macaca mulatta); called …)
T2 construct: also called Monkey γ9δ2 TCR; Cynomolgus monkey γ9δ2
T2 V domain 1: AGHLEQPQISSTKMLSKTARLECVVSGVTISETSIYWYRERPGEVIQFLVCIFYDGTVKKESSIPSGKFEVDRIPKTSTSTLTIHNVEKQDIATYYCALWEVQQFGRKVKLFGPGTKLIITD
T2 V domain 2: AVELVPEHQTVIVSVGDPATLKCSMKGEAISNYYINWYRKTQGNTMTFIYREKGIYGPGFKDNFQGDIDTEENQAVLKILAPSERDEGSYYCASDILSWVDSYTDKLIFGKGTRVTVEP

B1: SDP01346 (VHH, not shown: small tags and cut ends)
VHH: QVQLVESGGGLVQAGGSLRLSCTVSGSTFSDFAMGWLRQAPGKEREFVAAISWTGGRTYYADSVKGRFAISRDNGENTVYLQMNSLKSEDTAIYYCAASRDCSGPGCRVHEYDYWGQGTQVTVSS
notes: also called clone No. ac-025; anti-γδTCR single-domain antibody
B2: SDP01696 (bispecific antibody, human IgG1, kappa)
heavy 1: not shown
light 1: DIQMTQSPSSVSASVGDRVTITCKASQNVGTNVAWYQQKPGKAPKALIYSASYRYSGVPSRFSGSGSGTDFTLTISSLQPEDFATYYCQQYNSFPLTFGQGTKLEIKGGGGSGIPPKIECLPIDISIDEGKVLTVASAFTGEPTPEVTWSTGGRKIHSQEQGRFHIENTDDSTTLTIKDVQKQDGGLYTLTLRNEFGSDSATVNIHIRSI
heavy 2: QVQLVQSGAEVKKPGASVKVSCKASGYTFTDYEMHWVRQAPGQGLEWMGALDPKTGDTAYSQKFKGRVTLTADKSTSTAYMELSSLTSEDTAVYYCTRFYSYTYWGQGTLVTVSSASTKGPSVFPLAPSSKSTSGGTAALGCLVKDYFPEPVTVSWNSGALTSGVHTFPAVLQSSGLYSLSSVVTVPSSSLGTQTYICNVNHKPSNTKVDKKVEPKSCDKTHTCPPCPAPEFEGGPSVFLFPPKPKDTLMISRTPEVTCVVVDVSHEDPEVKFNWYVDGVEVHNAKTKPREEQYNSTYRVVSVLTVLHQDWLNGKEYKCKVSNKALPAPIEKTISKAKGQPREPQVCTLPPSREEMTKNQVSLSCAVKGFYPSDIAVEWESNGQPENNYKTTPPVLDSDGSFFLVSKLTVDKSRWQQGNVFSCSVMHEALHNHYTQKSLSLSPGK
light 2: DVVMTQSPLSLPVTPGEPASISCRSSQSLVHSNRNTYLHWYLQKPGQSPQLLIYKVSNRFSGVPDRFSGSGSGTDFTLKISRVEAEDVGVYYCSQNTHVPPTFGQGTKLEIKRTVAAPSVFIFPPSDEQLKSGTASVVCLLNNFYPREAKVQWKVDNALQSGNSQESVTEQDSKDSTYSLSSTLTLSKADYEKHKVYACEVTHQGLSSPVTKSFNRGEC
notes: also called anti-GPC3/γδTCR bispecific antibody (1+1, with SDP01315H2L2)
B3: SDP01704 (bispecific antibody, human IgG1, kappa)
heavy 1: not shown
light 1: B2 light 1
heavy 2: QVQLVQSGAEVKKPGASVKVSCKASGYTFTDYEMHWVRQAPGQGLEWMGALDPKTGDTAYSQKFKGRVTLTADKSTSTAYMELSSLTSEDTAVYYCTRFYSYTYWGQGTLVTVSSASTKGPSVFPLAPSSKSTSGGTAALGCLVKDYFPEPVTVSWNSGALTSGVHTFPAVLQSSGLYSLSSVVTVPSSSLGTQTYICNVNHKPSNTKVDKKVEPKSCDGGGGSGGGGSQVQLVQSGAEVKKPGASVKVSCKASGYTFTDYEMHWVRQAPGQGLEWMGALDPKTGDTAYSQKFKGRVTLTADKSTSTAYMELSSLTSEDTAVYYCTRFYSYTYWGQGTLVTVSSASTKGPSVFPLAPSSKSTSGGTAALGCLVKDYFPEPVTVSWNSGALTSGVHTFPAVLQSSGLYSLSSVVTVPSSSLGTQTYICNVNHKPSNTKVDKKVEPKSCDKTHTCPPCPAPEFEGGPSVFLFPPKPKDTLMISRTPEVTCVVVDVSHEDPEVKFNWYVDGVEVHNAKTKPREEQYNSTYRVVSVLTVLHQDWLNGKEYKCKVSNKALPAPIEKTISKAKGQPREPQVCTLPPSREEMTKNQVSLSCAVKGFYPSDIAVEWESNGQPENNYKTTPPVLDSDGSFFLVSKLTVDKSRWQQGNVFSCSVMHEALHNHYTQKSLSLSPGK
light 2: B2 light 2
notes: Bivalent for GPC3; also called anti-GPC3/γδTCR bispecific antibody (2+1, with SDP01315H2L2)
B4: SDP01716 (bispecific antibody, human IgG1, kappa)
heavy 1: not shown
heavy 2: QVQLVQSGAEVKKPGASVKVSCKASGYTFTDYEMHWVRQAPGQGLEWMGALDPKTGDTAYSQKFKGRVTLTADKSTSTAYMELSSLTSEDTAVYYCTRFYSYTYWGQGTLVTVSSASTKGPSVFPLAPSSKSTSGGTAALGCLVKDYFPEPVTVSWNSGALTSGVHTFPAVLQSSGLYSLSSVVTVPSSSLGTQTYICNVNHKPSNTKVDKKVEPKSCDKTHTCPPCPAPEFEGGPSVFLFPPKPKDTLMISRTPEVTCVVVDVSHEDPEVKFNWYVDGVEVHNAKTKPREEQYNSTYRVVSVLTVLHQDWLNGKEYKCKVSNKALPAPIEKTISKAKGQPREPQVCTLPPSREEMTKNQVSLSCAVKGFYPSDIAVEWESNGQPENNYKTTPPVLDSDGSFFLVSKLTVD
light: B2 light 2
notes: Knob-into-hole IgG1 Fc with L234F/L235E; also called anti-GPC3/γδTCR bispecific antibody (1+1, with SDP01346H4)
B5: SDP01315 (antibody, V domains shown)
VH: EVKLVESGGGLVKPGGSLKLSCAASGFTFSSYAMSWVRQTPEKRLEWVASISSGGSTYYPDSVKGRFTISRDNARNILYLQMSSLRSEDTAMYYCARDGYPPFDYWGQGTTLTVSS
VL: DIVMTQSQKFMSTSVGDRVSVTCKASQNVGTNVAWYQQKPGQSPKALIYSASYRYSGVPDRFTGSGSGTDFTLTISNVQSEDLAEYFCQQYNSFPLTFGSGTKLEIK
notes: Tested as a chimeric antibody (Protein A purified, detected with anti-human Fc); also called clone No. bph-003; murine-derived anti-γδTCR antibody

Tests used:
[1] = target: T1, recombinant human γ8δ2 TCR protein; assay: ELISA, plate coated with 1 µg/mL recombinant TCR protein, antibody at 30 nM
[2] = target: T3, human GPC3 naturally expressed on tumor cells (human, UniProt P51654 25-580); assay: cell-based or functional assay
[3] = target: T3, human GPC3 naturally expressed on tumor …; assay: FACS on HepG2 cells (natural human GPC3), anti-human Fc secondary
[4] = target: T2, recombinant monkey (Macaca mulatta) …; assay: SPR (Biacore 8K), antibody captured on Protein A chip, antigen as analyte
[5] = target: T4, human GPC3 (Sino Biological, Cat#10088-H08H) (human, UniProt P51654 25-559); assay: as above
T4 construct: Bought protein; also called human GPC3 protein

[6] = target: T5, cynomolgus monkey GPC3 (Acrobiosystems, Cat#GP3-C5225) (cynomolgus monkey, UniProt A0A2K5VK50 24-558); assay: as above
T5 construct: Bought protein

[7] = target: T3, human GPC3 naturally expressed on tumor …; assay: cell-based or functional assay; remark: listed apart in the source
[8] = target: T1, recombinant human γ8δ2 TCR protein; assay: ELISA, plate coated with 1 µg/mL recombinant TCR protein

T3 sequence (P51654 25-580, form in doubt): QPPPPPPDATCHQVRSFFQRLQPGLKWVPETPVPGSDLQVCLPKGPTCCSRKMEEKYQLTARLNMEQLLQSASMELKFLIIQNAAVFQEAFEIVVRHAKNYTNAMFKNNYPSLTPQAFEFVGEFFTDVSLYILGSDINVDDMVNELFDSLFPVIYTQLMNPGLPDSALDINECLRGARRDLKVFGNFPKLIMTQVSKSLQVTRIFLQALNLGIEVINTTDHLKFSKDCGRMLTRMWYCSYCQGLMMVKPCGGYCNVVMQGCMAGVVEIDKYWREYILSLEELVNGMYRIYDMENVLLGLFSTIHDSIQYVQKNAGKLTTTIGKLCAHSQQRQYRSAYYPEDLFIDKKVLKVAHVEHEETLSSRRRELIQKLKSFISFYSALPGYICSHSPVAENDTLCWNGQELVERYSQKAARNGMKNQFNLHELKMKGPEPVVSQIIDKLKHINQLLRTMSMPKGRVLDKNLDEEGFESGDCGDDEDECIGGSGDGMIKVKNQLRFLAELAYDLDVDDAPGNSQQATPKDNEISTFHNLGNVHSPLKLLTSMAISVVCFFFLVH
T4 sequence (P51654 25-559 limits assumed): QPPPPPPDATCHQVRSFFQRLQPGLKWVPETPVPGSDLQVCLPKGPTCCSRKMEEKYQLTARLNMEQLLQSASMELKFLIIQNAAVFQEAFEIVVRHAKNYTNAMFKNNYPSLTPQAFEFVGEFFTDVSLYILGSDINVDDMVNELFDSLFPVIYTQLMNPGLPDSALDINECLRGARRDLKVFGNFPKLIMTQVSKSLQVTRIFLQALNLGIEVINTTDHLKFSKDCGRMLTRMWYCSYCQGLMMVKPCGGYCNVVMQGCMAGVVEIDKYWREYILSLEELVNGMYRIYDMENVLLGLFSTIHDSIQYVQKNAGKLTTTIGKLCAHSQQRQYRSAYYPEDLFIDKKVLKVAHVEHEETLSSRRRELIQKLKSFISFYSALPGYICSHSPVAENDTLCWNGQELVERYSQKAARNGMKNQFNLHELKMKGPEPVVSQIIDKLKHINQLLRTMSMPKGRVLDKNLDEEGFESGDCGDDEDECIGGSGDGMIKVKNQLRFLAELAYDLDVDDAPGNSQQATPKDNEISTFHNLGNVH

Binder	absorbance at 450 nm [1] [absorbance at 450 nm]	γδT killing of HepG2, EC50 (LDH assay) [2] [pM]	γδT killing of HepG2, Emax (LDH assay) [2] [%]	γδT killing of Huh-7, EC50 (LDH assay) [2] [pM]	γδT killing of Huh-7, Emax (LDH assay) [2] [%]	γδT killing of MKN-45, EC50 (LDH assay) [2] [pM]	γδT killing of MKN-45, Emax (LDH assay) [2] [%]	EC50 [3] [pM]	Kd [4] [pM]	Kd [5] [pM]	Kd [6] [pM]	Killing activity against HepG2, EC50, γδ T cells of donor #SC12004 (LDH assay) [7] [pM]	Killing activity against HepG2, EC50, γδ T cells of donor #SC12392 (LDH assay) [7] [pM]	Killing activity against HepG2, EC50, γδ T cells of donor #XC11053 (LDH assay) [7] [pM]	Killing activity against HepG2, EC50, γδ T cells of donor #XC11061 (LDH assay) [7] [pM]	binding result [8]
B1	0.108	–	–	–	–	–	–	–	–	–	–	–	–	–	–	–
B2	–	60	70.1	210	50.9	24	11	5170	42400	1740	1470	–	–	–	–	–
B3	–	30	72	110	61.7	16	6.6	2470	40600	1840	1630	–	–	–	–	–
B4	–	10	70.3	60	93.8	4	10.3	4850	68800	1650	1470	38	33	17	54	–
B5	0.192	–	–	–	–	–	–	–	–	–	–	–	–	–	–	no binding (tested: 30 nM)
